Target: CD23的多肽抗原 (synthetic CD23 peptide antigens of SEQ ID NO:1-3)
Assay: indirect ELISA; peptide antigens of SEQ ID NO:1-3 on the 96-well plate at varied molar concentrations, antibody at 0.125 μg/mL (about 0.83 nmol/L), HRP goat anti-mouse IgG, OD450; value given at a peptide concentration of 0.56 μmol/L

Kd: 700 nM
B1: 365A2D1抗CD23单克隆抗体 (anti-CD23 monoclonal antibody secreted by mouse hybridoma cell line 365A2D1) (antibody, V domains shown)
VH: EVQLQESGGGLVQPKGSLKLSCAASGYTFNTYAMHWVRQAPGKGLEWVARIRSKSNNYEPYYADSVKDRFTISRDDSQSILYLQMNNLKTEDTAMYYCVREYYDAMDYWGQGTSVTVSS
VL: EIVMTQAAPSVSVTPGESVSISCRSSQSLLHSNGNTYLYWFLQRPGQSPHLLISRVSNLASGVPDRFSGSGSGTAFTLRISRVEAEDVGVYYCMQGLEFPWTFGGGTKLEIK

From patent CN112646036A
